Test results as given in patent US20240043533A1 (NGM BIOPHARMACEUTICALS, published 2024).
Positions count from the first letter of the chain named.

Key:
Cyno LILRB5 = target: T1, Cyno LILRB5 (Macaca fascicularis, UniProt A0A2K5VIP6); assay: FACS on cells expressing cyno LILRB5, labeled anti-mouse Fc secondary antibody
T1 construct: expressed on the cell surface; also called cynomolgus LILRB5
Protocol: (§1) ELISA assays were used to screen antibodies against human ILT3 and human LILRA1,2,4-6. […] These antibodies were rescreened by FACS for binding to human ILT3 and cyno ILT3 expressed on HEK-293T cells. The antibodies that bound to both human and cyno ILT3 were selected. This subset of antibodies were screened by FACS against human LILRB1-5 (ILT2, ILT4, ILT5, ILT3, and LILRB5, respectively), cyno LILRB5, and human LILRA1,2,4-6. For FACS screening, each antibody was incubated with cells expressing human ILT3, cyno ILT3, one of the LILRA proteins, or one of the LILRB proteins for 30 minutes at 4° C. After washing, the cells were incubated with labeled anti-mouse Fc antibody for 30 minutes at 4° C. After washing, cells were analyzed on a flow cytometer. Antibodies were selected on the criteria of binding to human ILT3, cyno ILT3, no or limited binding to other LILRB proteins, and no or limited binding to LILRA proteins.

human LILRB2 = target: T2, human LILRB2 (human, UniProt Q8N423 22-597); assay: FACS on cells expressing human LILRB2, labeled anti-mouse Fc secondary antibody
T2 construct: whole, on cells; also called ILT4
Protocol: as §1

LILRB3 = target: T3, LILRB3 (human, UniProt O75022); assay: FACS on cells expressing human LILRB3, labeled anti-mouse Fc secondary antibody
T3 construct: expressed on the cell surface; also called human LILRB3; ILT5
Protocol: as §1

LILRB5 = target: T4, LILRB5 (human, UniProt O75023); assay: FACS on cells expressing human LILRB5, labeled anti-mouse Fc secondary antibody
T4 construct: expressed on the cell surface; also called human LILRB5; CD85C
Protocol: as §1

human LILRA1 = target: T5, human LILRA1 (human, UniProt O75019 17-489); assay: FACS on cells expressing human LILRA1, labeled anti-mouse Fc secondary antibody
T5 construct: whole, on cells
Protocol: as §1

human LILRA2 = target: T6, human LILRA2 (human, UniProt Q8N149 24-483); assay: FACS on cells expressing human LILRA2, labeled anti-mouse Fc secondary antibody
T6 construct: whole, on cells
Protocol: as §1

human LILRA4 = target: T7, human LILRA4 (human, UniProt P59901 24-499); assay: FACS on cells expressing human LILRA4, labeled anti-mouse Fc secondary antibody
T7 construct: whole, on cells
Protocol: as §1

human LILRA5 = target: T8, human LILRA5 (human, UniProt A6NI73 42-299); assay: FACS on cells expressing human LILRA5, labeled anti-mouse Fc secondary antibody
T8 construct: whole, on cells
Protocol: as §1

human LILRA6 = target: T9, human LILRA6 (human, UniProt Q6PI73 24-447, limits assumed); assay: FACS on cells expressing human LILRA6, labeled anti-mouse Fc secondary antibody
T9 construct: Read out of the printed 'LILRA1,2,4-6'
Protocol: as §1

[1] = target: T10, extracellular domain of human ILT3 (huILT3-ECD) (human, UniProt Q8NHJ6 22-259); assay: SPR (Biacore), antibody captured via anti-Fc on CM5 chip, soluble ILT3-ECD injected, 37 C
T10 construct: also called human ILT3-ECD
Protocol: (§2) The binding affinities of anti-ILT3 antibodies to human ILT3 and cyno ILT3 were measured using a Biacore system (GE Healthcare LifeSciences). Briefly, anti-Fc antibody (Sigma-Aldrich) was immobilized on all four flow cells of a CM5 chip using amine coupling reagents (GE Healthcare LifeSciences). Antibodies were captured on flow cells 2, 3, and 4 using flow cell 1 as a reference. Concentrations ranging from 3.3-10 nM of human or cyno ILT3-ECD were injected at a flow rate of 50 μL/min at 37° C. Kinetic data were collected over time and fit using the simultaneous global fit equation to yield affinity constants (KD values) for each antibody.

[2] = target: T11, extracellular domain of cyno ILT3 (cynoILT3-ECD) (cynomolgus monkey); assay: as above
T11 chain: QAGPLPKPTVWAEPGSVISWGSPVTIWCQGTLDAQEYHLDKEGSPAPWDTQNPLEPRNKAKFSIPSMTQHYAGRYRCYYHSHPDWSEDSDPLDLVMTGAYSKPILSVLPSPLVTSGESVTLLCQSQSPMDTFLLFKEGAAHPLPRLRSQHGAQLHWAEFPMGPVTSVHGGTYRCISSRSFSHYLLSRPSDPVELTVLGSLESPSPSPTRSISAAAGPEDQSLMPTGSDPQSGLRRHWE
Protocol: as §2

LILRB4 = target: T12, LILRB4; assay: FACS on cells expressing human LILRB4 (ILT3), labeled anti-mouse Fc secondary antibody
T12 construct: the construct expressed on the cells is not described further; also called human ILT3 expressed on cells for the FACS screen; ILT3
Protocol: as §1

T9 sequence (Q6PI73 24-447 limits assumed): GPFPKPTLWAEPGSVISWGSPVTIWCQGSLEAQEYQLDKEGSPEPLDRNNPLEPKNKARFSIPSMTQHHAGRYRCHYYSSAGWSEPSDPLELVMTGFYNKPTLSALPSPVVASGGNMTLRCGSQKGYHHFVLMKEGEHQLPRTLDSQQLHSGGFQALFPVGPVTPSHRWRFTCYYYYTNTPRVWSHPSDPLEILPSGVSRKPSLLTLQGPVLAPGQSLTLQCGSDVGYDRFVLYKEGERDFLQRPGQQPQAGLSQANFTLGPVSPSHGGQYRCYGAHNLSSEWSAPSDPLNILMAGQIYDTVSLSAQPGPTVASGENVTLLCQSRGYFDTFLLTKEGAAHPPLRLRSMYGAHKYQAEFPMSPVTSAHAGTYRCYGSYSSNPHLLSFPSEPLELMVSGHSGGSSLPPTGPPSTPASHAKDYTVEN
T5 sequence (O75019 17-489): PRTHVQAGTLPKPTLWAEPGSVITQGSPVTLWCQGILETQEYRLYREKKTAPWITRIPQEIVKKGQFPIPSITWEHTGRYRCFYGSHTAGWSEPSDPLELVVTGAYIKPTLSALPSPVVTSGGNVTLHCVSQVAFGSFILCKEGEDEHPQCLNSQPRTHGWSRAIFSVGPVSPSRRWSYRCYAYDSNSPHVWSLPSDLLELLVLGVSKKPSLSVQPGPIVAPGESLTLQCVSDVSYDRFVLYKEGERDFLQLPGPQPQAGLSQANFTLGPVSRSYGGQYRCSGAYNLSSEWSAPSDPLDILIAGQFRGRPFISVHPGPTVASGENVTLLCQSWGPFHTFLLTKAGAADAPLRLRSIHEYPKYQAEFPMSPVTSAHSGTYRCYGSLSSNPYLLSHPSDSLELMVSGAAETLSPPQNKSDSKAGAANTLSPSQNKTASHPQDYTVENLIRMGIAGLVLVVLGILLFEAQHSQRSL
T2 sequence (Q8N423 22-597): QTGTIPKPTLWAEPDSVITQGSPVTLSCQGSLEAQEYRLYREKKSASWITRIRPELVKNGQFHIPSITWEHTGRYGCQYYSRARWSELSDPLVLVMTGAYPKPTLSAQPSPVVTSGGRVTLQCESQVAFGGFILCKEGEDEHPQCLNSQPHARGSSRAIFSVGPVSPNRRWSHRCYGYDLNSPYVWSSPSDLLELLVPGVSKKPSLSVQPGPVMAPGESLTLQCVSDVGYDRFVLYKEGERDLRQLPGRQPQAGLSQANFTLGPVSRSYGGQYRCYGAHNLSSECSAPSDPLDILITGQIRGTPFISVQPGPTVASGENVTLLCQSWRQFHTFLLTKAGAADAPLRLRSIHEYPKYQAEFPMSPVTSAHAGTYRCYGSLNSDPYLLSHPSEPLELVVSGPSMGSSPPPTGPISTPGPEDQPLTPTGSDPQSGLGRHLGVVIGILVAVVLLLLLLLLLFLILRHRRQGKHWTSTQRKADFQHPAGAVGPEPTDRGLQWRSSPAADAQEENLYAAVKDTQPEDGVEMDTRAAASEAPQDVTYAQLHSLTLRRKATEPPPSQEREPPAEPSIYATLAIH
T12 sequence (receptor, as listed by the source limits assumed): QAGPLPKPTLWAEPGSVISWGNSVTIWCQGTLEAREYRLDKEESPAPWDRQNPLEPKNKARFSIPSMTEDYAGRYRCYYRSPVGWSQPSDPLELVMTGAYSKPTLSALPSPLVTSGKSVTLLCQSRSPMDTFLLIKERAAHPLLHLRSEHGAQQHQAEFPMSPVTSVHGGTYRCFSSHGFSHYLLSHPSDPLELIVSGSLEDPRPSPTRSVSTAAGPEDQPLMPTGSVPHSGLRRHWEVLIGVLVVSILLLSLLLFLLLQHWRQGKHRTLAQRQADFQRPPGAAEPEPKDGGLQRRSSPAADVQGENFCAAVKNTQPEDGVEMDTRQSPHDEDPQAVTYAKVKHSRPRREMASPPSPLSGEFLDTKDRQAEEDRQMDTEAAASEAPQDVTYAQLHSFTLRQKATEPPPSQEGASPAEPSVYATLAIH
T8 sequence (A6NI73 42-299): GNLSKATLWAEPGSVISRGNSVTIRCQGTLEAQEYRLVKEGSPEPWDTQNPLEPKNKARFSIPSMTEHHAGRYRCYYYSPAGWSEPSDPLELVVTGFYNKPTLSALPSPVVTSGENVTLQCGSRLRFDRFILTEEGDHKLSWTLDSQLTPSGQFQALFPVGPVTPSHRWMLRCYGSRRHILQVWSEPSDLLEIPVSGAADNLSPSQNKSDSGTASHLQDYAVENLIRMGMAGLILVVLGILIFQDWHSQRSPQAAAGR
T4 sequence (O75023 24-590 limits assumed): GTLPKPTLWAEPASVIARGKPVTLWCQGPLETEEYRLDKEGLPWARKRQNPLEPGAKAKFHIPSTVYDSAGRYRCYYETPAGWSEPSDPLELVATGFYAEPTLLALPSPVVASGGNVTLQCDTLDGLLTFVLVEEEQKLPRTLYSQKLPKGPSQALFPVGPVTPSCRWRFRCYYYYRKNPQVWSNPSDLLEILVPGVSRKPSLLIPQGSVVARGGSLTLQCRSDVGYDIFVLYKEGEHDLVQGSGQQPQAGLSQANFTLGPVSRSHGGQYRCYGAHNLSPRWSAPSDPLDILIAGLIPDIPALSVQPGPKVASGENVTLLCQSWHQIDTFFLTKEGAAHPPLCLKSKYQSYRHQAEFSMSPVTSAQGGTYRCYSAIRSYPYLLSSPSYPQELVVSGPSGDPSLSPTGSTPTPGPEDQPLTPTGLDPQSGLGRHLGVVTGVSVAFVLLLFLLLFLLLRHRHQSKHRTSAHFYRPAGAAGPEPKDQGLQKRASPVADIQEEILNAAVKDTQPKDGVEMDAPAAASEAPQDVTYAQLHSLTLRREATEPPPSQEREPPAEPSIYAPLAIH
T7 sequence (P59901 24-499): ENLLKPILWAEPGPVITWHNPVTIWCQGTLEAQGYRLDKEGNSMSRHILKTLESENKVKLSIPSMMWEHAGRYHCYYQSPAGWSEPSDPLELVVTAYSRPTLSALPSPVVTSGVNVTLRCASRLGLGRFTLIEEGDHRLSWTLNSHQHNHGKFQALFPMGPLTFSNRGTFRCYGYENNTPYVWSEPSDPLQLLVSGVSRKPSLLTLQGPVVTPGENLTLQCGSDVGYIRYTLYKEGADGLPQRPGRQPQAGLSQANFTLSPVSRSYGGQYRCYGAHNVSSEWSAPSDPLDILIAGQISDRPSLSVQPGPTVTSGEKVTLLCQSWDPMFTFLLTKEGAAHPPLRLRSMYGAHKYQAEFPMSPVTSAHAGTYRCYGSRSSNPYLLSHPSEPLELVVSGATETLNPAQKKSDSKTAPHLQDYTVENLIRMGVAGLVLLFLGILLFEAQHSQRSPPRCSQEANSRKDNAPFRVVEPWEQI
T3 sequence (O75022 24-631 limits assumed): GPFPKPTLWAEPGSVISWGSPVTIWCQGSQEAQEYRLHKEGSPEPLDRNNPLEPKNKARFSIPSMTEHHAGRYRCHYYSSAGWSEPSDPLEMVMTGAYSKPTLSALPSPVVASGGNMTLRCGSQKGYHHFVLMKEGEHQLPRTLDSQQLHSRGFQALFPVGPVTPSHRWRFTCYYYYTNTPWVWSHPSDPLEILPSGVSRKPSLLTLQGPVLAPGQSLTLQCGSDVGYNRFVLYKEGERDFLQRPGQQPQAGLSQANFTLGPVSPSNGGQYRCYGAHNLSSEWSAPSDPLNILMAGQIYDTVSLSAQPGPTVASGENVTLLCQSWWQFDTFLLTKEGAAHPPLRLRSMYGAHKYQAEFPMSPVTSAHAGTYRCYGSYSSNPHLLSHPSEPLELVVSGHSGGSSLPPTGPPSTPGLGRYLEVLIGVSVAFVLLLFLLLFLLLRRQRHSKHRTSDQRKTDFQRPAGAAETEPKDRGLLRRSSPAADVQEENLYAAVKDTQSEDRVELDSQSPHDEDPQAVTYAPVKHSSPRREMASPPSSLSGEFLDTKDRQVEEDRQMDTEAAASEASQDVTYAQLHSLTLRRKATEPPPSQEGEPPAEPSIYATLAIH
T1 sequence (A0A2K5VIP6 entry or part of it): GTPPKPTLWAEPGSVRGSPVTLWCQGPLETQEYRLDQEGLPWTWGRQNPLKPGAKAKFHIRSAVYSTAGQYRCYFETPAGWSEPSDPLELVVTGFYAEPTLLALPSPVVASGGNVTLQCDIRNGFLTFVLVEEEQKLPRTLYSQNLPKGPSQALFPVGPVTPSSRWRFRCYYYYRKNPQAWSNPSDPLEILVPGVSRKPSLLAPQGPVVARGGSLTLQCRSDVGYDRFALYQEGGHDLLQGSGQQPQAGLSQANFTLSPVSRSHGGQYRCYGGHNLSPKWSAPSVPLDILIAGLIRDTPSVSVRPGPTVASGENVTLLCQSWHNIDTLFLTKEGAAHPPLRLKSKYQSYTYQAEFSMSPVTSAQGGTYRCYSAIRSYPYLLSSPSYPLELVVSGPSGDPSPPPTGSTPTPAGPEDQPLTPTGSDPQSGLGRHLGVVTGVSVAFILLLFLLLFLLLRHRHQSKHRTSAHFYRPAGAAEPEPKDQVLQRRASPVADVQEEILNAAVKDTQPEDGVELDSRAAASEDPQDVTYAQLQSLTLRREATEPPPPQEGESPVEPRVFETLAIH
T6 sequence (Q8N149 24-483): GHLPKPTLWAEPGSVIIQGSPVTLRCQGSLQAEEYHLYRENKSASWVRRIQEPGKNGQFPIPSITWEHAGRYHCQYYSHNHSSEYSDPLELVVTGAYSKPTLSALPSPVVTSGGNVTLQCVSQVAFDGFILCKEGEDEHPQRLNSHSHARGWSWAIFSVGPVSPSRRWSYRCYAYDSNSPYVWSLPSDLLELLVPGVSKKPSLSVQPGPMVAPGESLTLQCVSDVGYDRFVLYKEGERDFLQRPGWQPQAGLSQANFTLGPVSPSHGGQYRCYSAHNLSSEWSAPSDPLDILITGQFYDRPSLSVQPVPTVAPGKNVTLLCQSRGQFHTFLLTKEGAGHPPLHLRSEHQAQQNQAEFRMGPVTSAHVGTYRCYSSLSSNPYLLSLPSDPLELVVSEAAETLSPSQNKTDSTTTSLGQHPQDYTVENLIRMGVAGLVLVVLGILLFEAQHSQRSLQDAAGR

B1: anti-ILT3 antibody 53F10 (antibody, V domains shown)
VH: EVQVVESGGGLVKPGGSLKLSCAASGFTFSDYGMHWVRQAPEKGLEWVAYISTGIITVYYADTVKGRFTMSRDNAKNTLFLQMTSLRSEDTAIYYCARADGRGAMDYWGQGTSVIVSS
VL: DIQMTQTTSSLSASLGDRVTISCRASQDISNFLNWYQQKPDGTVTLLIYYTSRLHSGVPSRFSGSGSGTDYSLTISNLEQEDFATYFCQQGNTLPWTFGGGTKLEIK
notes: Mouse monoclonal antibody from hybridoma
Cyno LILRB5
  binding result: no binding (tested: log [Ab] about -7.2 M (about 6e-8 M))
Human LILRB2
  binding result: no binding (tested: log [Ab] about -7.2 M (about 6e-8 M))
LILRB3
  binding result: no binding (tested: log [Ab] about -7.2 M (about 6e-8 M))
LILRB5
  binding result: no binding (tested: log [Ab] about -7.2 M (about 6e-8 M))
Human LILRA1
  binding result: no binding (tested: log [Ab] about -7.2 M (about 6e-8 M))
Human LILRA2
  binding result: no binding (tested: log [Ab] about -7.2 M (about 6e-8 M))
Human LILRA4
  binding result: no binding (tested: log [Ab] about -7.2 M (about 6e-8 M))
Human LILRA5
  binding result: no binding (tested: log [Ab] about -7.2 M (about 6e-8 M))
Human LILRA6
  binding result: no binding (tested: log [Ab] about -7.2 M (about 6e-8 M))
[1]
  Kd: 0.24 nM
  koff: 8e-05 s⁻¹
  kon: 330000 M⁻¹ s⁻¹
[2]
  Kd: 9.4 nM
  koff: 0.0055 s⁻¹
  kon: 590000 M⁻¹ s⁻¹
LILRB4
  EC50 (read off the curve): ~0.4 nM

B2: anti-ILT3 antibody 48A6 (antibody, V domains shown)
VH: EVQLVESGGDLMKPGGSLKLSCAASGFTFSSYGMSWVRQTPDKRLEWVATISSGGTYTFYPDSVKGRFTISRDNAKNTLYLQMSSLKSEDTAMYYCARRGWLLHYYAMDYWGQGTSVTVSS
VL: NIVLTQSPASLAVSLGQRATISCRPSESVDSFGNSFMHWFQQKPGQPPKLLIYLSSKLESGVPARFSGSGSRTDFTLTIDPVEADDAATYYCQQHNEDPFTFGSGTKLEIK
notes: as for B1
Cyno LILRB5
  binding result: no binding (tested: log [Ab] about -7.2 M (about 6e-8 M))
Human LILRB2
  binding result: no binding (tested: log [Ab] about -7.2 M (about 6e-8 M))
LILRB3
  binding result: binds
LILRB5
  binding result: no binding (tested: log [Ab] about -7.2 M (about 6e-8 M))
Human LILRA1
  binding result: no binding (tested: log [Ab] about -7.2 M (about 6e-8 M))
Human LILRA2
  binding result: no binding (tested: log [Ab] about -7.2 M (about 6e-8 M))
Human LILRA4
  binding result: no binding (tested: log [Ab] about -7.2 M (about 6e-8 M))
Human LILRA5
  binding result: no binding (tested: log [Ab] about -7.2 M (about 6e-8 M))
Human LILRA6
  binding result: no binding (tested: log [Ab] about -7.2 M (about 6e-8 M))
[1]
  Kd: < 0.1 nM
  koff: 1.8e-07 s⁻¹
  kon: 7e+06 M⁻¹ s⁻¹
[2]
  Kd: 1.7 nM
  koff: 0.024 s⁻¹
  kon: 1.4e+07 M⁻¹ s⁻¹
LILRB4
  EC50 (read off the curve): ~0.2 nM

B3: anti-ILT3 antibody 5A7 (antibody, V domains shown)
VH: EVKLVESGGGLVKPGGSLKLSCAASGFTFSSYGMSWVRQTPEKRLEWVATISGGGSYTNYPDSVKGRLTISRDNAKKNLYLEMSSLRSEDTALYYCARREWRMTLYAMDYWGQGTSVTVSS
VL: B2 VL with P25A, F32Y, F40Y, P47A, S55T, K57N, H95N
notes: as for B1
Cyno LILRB5
  binding result: no binding (tested: log [Ab] about -7.2 M (about 6e-8 M))
Human LILRB2
  binding result: no binding (tested: log [Ab] about -7.2 M (about 6e-8 M))
LILRB3
  binding result: no binding (tested: log [Ab] about -7.2 M (about 6e-8 M))
LILRB5
  binding result: no binding (tested: log [Ab] about -7.2 M (about 6e-8 M))
Human LILRA1
  binding result: no binding (tested: log [Ab] about -7.2 M (about 6e-8 M))
Human LILRA2
  binding result: no binding (tested: log [Ab] about -7.2 M (about 6e-8 M))
Human LILRA4
  binding result: no binding (tested: log [Ab] about -7.2 M (about 6e-8 M))
Human LILRA5
  binding result: no binding (tested: log [Ab] about -7.2 M (about 6e-8 M))
Human LILRA6
  binding result: no binding (tested: log [Ab] about -7.2 M (about 6e-8 M))
[1]
  Kd: 0.028 nM
  koff: 0.00011 s⁻¹
  kon: 3.8e+06 M⁻¹ s⁻¹
[2]
  Kd: 0.66 nM
  koff: 0.0022 s⁻¹
  kon: 3.3e+06 M⁻¹ s⁻¹
LILRB4
  EC50 (read off the curve): ~0.3 nM
